Measured values taken from IntAct's records for PubMed 35512704.

B1: Speckle-type POZ protein (Homo sapiens), O43791 (parent)
chain: MSRVPSPPPPAEMSSGPVAESWCYTQIKVVKFSYMWTINNFSFCREEMGEVIKSSTFSSGANDKLKWCLRVNPKGLDEESKDYLSLYLLLVSCPKSEVRAKFKFSILNAKGEETKAMESQRAYRFVQGKDWGFKKFIRRDFLLDEANGLLPDDKLTLFCEVSVVQDSVNISGQNTMNMVKVPECRLADELGGLWENSRFTDCCLCVAGQEFQAHKAILAARSPVFSAMFEHEMEESKKNRVEINDVEPEVFKEMMCFIYTGKAPNLDKMADDLLAAADKYALERLKVMCEDALCSNLSVENAAEILILADLHSADQLKTQAVDFINYHASDVLETSGWKSMVVSHPHLVAEAYRSLASAQCPFLGPPRKRLKQS

Variants of: B1
Settings: with brd4_human BRD4, O60885

Variant	effect of a mutation on the interaction
F133L	disrupting interaction strength

Variants of: B1
Settings: with ncoa3_human NCOA3, Q9Y6Q9

Variant	effect of a mutation on the interaction
F133L	disrupting interaction strength

Variants of: B1
Settings: with jun_human JUN

Variant	effect of a mutation on the interaction
F133L	with no effect

Variants of: B1
Settings: with akt1_human AKT1, P31749

Variant	effect of a mutation on the interaction
F133L	with no effect

Variants of: B1
Settings: with alk_human ALK

Variant	effect of a mutation on the interaction
F133L	with no effect

Variants of: B1
Settings: with aph1a_human APH1A

Variant	effect of a mutation on the interaction
F133L	with no effect

Variants of: B1
Settings: with arnt_human ARNT

Variant	effect of a mutation on the interaction
F133L	with no effect

Variants of: B1
Settings: with arc1a_human ARPC1A

Variant	effect of a mutation on the interaction
F133L	with no effect

Variants of: B1
Settings: with arrb2_human ARRB2, P32121

Variant	effect of a mutation on the interaction
F133L	with no effect

Variants of: B1
Settings: with bakor_human ATG14, Q6ZNE5

Variant	effect of a mutation on the interaction
F133L	with no effect

Variants of: B1
Settings: with atm_human ATM

Variant	effect of a mutation on the interaction
F133L	with no effect

Variants of: B1
Settings: with atpb_human ATP5F1B

Variant	effect of a mutation on the interaction
F133L	with no effect

Variants of: B1
Settings: with aurkb_human AURKB

Variant	effect of a mutation on the interaction
F133L	with no effect

Variants of: B1
Settings: with axin2_human AXIN2, Q9Y2T1

Variant	effect of a mutation on the interaction
F133L	with no effect

Variants of: B1
Settings: with za2g_human AZGP1, P25311

Variant	effect of a mutation on the interaction
F133L	with no effect

Variants of: B1
Settings: with bap1_human BAP1, Q92560

Variant	effect of a mutation on the interaction
F133L	with no effect

Variants of: B1
Settings: with bcor_human BCOR

Variant	effect of a mutation on the interaction
F133L	with no effect

Variants of: B1
Settings: with brd4_human BRD4, O60885
Remark: another data set of the same source

Variant	effect of a mutation on the interaction
F133L	with no effect

Variants of: B1
Settings: with baba2_human BABAM2, Q9NXR7

Variant	effect of a mutation on the interaction
F133L	with no effect

Variants of: B1
Settings: with btg1_human BTG1, P62324

Variant	effect of a mutation on the interaction
F133L	with no effect

Variants of: B1
Settings: with btk_human BTK

Variant	effect of a mutation on the interaction
F133L	with no effect

Variants of: B1
Settings: with cblb_human CBLB

Variant	effect of a mutation on the interaction
F133L	with no effect

Variants of: B1
Settings: with ccnd1_human CCND1, P24385

Variant	effect of a mutation on the interaction
F133L	with no effect

Variants of: B1
Settings: with ccnd2_human CCND2, P30279

Variant	effect of a mutation on the interaction
F133L	with no effect

Variants of: B1
Settings: with ccnd3_human CCND3, P30281

Variant	effect of a mutation on the interaction
F133L	with no effect

Variants of: B1
Settings: with cd44_human CD44, P16070

Variant	effect of a mutation on the interaction
F133L	with no effect

Variants of: B1
Settings: with cd79b_human CD79B

Variant	effect of a mutation on the interaction
F133L	with no effect

Variants of: B1
Settings: with cdc27_human CDC27, P30260

Variant	effect of a mutation on the interaction
F133L	with no effect

Variants of: B1
Settings: with cdc73_human CDC73, Q6P1J9

Variant	effect of a mutation on the interaction
F133L	with no effect

Variants of: B1
Settings: with cdk4_human CDK4, P11802

Variant	effect of a mutation on the interaction
F133L	with no effect

Variants of: B1
Settings: with cdk6_human CDK6, Q00534

Variant	effect of a mutation on the interaction
F133L	with no effect

Variants of: B1
Settings: with cdn2c_human CDKN2C

Variant	effect of a mutation on the interaction
F133L	with no effect

Variants of: B1
Settings: with chd1l_human CHD1L

Variant	effect of a mutation on the interaction
F133L	with no effect

Variants of: B1
Settings: with chd2_human CHD2, O14647

Variant	effect of a mutation on the interaction
F133L	with no effect

Variants of: B1
Settings: with chk2_human CHEK2, O96017

Variant	effect of a mutation on the interaction
F133L	with no effect

Variants of: B1
Settings: with ch3l1_human CHI3L1, P36222

Variant	effect of a mutation on the interaction
F133L	with no effect

Variants of: B1
Settings: with csf1r_human CSF1R

Variant	effect of a mutation on the interaction
F133L	with no effect

Variants of: B1
Settings: with ctla4_human CTLA4, P16410

Variant	effect of a mutation on the interaction
F133L	with no effect

Variants of: B1
Settings: with cul3_human CUL3, Q13618

Variant	effect of a mutation on the interaction
F133L	with no effect

Variants of: B1
Settings: with daxx_human DAXX

Variant	effect of a mutation on the interaction
F133L	with no effect

Variants of: B1
Settings: with ddx5_human DDX5, P17844

Variant	effect of a mutation on the interaction
F133L	with no effect

Variants of: B1
Settings: with dll3_human DLL3, Q9NYJ7

Variant	effect of a mutation on the interaction
F133L	with no effect

Variants of: B1
Settings: with duox2_human DUOX2, Q9NRD8

Variant	effect of a mutation on the interaction
F133L	with no effect

Variants of: B1
Settings: with e2f2_human E2F2, Q14209

Variant	effect of a mutation on the interaction
F133L	with no effect

Variants of: B1
Settings: with e2f3_human E2F3, O00716

Variant	effect of a mutation on the interaction
F133L	with no effect

Variants of: B1
Settings: with e2f5_human E2F5, Q15329

Variant	effect of a mutation on the interaction
F133L	with no effect

Variants of: B1
Settings: with e2f6_human E2F6, O75461

Variant	effect of a mutation on the interaction
F133L	with no effect

Variants of: B1
Settings: with e2f8_human E2F8, A0AVK6

Variant	effect of a mutation on the interaction
F133L	with no effect

Variants of: B1
Settings: with if4e_human EIF4E

Variant	effect of a mutation on the interaction
F133L	with no effect

Variants of: B1
Settings: with epha7_human EPHA7, Q15375

Variant	effect of a mutation on the interaction
F133L	with no effect

Variants of: B1
Settings: with ephb1_human EPHB1, P54762

Variant	effect of a mutation on the interaction
F133L	with no effect

Variants of: B1
Settings: with erbb3_human ERBB3, P21860

Variant	effect of a mutation on the interaction
F133L	with no effect

Variants of: B1
Settings: with erbb4_human ERBB4, Q15303

Variant	effect of a mutation on the interaction
F133L	with no effect

Variants of: B1
Settings: with esr1_human ESR1, P03372

Variant	effect of a mutation on the interaction
F133L	with no effect

Variants of: B1
Settings: with etv1_human ETV1, P50549

Variant	effect of a mutation on the interaction
F133L	with no effect

Variants of: B1
Settings: with ezh1_human EZH1, Q92800

Variant	effect of a mutation on the interaction
F133L	with no effect

Variants of: B1
Settings: with ezh2_human EZH2, Q15910

Variant	effect of a mutation on the interaction
F133L	with no effect

Variants of: B1
Settings: with facd2_human FANCD2, Q9BXW9

Variant	effect of a mutation on the interaction
F133L	with no effect

Variants of: B1
Settings: with fgf19_human FGF19, O95750

Variant	effect of a mutation on the interaction
F133L	with no effect

Variants of: B1
Settings: with fgfp1_human FGFBP1, Q14512

Variant	effect of a mutation on the interaction
F133L	with no effect
